Experimental data from patent US8158577B2, “Modulation of cartilage homeostasis by active domains of cell binding extracellular matrix molecules” (priority 2004, dated 2012).

Assays:
[1] = test system: K9 cells; experiment: Adhesion of K9 cells to selected matrix constituents (FIG. 1); type: cell-based, human; settings: 5 μg/ml coating, 1 hour at 37° C., 50,000 cells/well seeded
Procedure: Human cells (K9) originating from a human chondrosarcoma were a kind gift from Drs. Sven Inerot and Anders Lindahl, The Salgrenska University Hospital Gothenburg, Sweden. The K9 cells were cultured in Dulbeccos Modified Eagle Medium: Nutrient Mixture F12 (DMEM/F12 1:1) with GLUTAMAX I, supplemented with 10% fetal calf serum, 25 μg/ml ascorbic acid, 50 IU of penicillin and 50 μg/ml streptomycin (Life Technologies, Inc.). A different human cells line (K105) originating from a human chondrosarcoma was a kind gift from Dr. Sven Inerot, The Salgrenska University Hospital, Gothenburg, Sweden. […]
To test cell binding, the chondrosarcoma cells or bovine chondrocytes were suspended in PBS containing 0.1% BSA, 25 U/ml collagenase and added to the wells (50,000/well), in the absence or presence of various peptide pools or the synthetic peptides (200, 100, 50, 25, 12.5 μg/ml). Non-adherent cells were removed after 1 hour and adhesion was determined by measuring lysosomal N-acetylglucosaminidase (12). […]
48-well tissue culture dishes were coated with 5 μg/ml collagen type II, tissue extracted bovine chondroadherin, human chondroadherin expressed in EBNA cells and human chondroadherin expressed in E. coli and blocked for non-specific binding with BSA. […] Nonadherent cells were removed by washing and adhesion was determined by analyzing lysosomal N-acetylglucosaminidase. […]

[2] = Heparin binding on Heparin-Sepharose; settings: eluted with NaCl (0.5, 1, 2M), Western blot or MALDI-TOF MS
Procedure: Intact recombinant protein (10 μg, EBNA-cell expressed) diluted in PBS was passed over Heparin-Sepharose (Amersham Pharmacia) (1 ml), washed with 20 volumes of PBS and eluted with 2 M NaCl (6×1 ml). Eluted material was precipitated with ethanol, separated by SDS-PAGE (10%) and visualized by western blot (CHAD ab α-80, Larsson et al). The peptide CKFPTKRSKKAGRH (SEQ ID No:7) was diluted in PBS and passed over heparin-sepharose (100 μl), the column was washed with 20 volumes PBS and bound material eluted with 0.5, 1, and 2M NaCl (3 column volumes of each).
Recombinant chondroadherin (10 or 100 μg) expressed in EBNA-cells was passed over Heparin-Sepharose-column (Pharmacia). The column was washed and eluted with 2M NaCl in PBS. Eluted material was separated on SDS-PAGE (10%) and detected by western blot using a chondroadherin antibody (see FIG. 4). The band at 36 kDa represents chondroadherin ant the band at 72 kDa represents a dimer of chondroadherin.
The candidate peptide CKFPTKRSKKAGRH (SEQ ID No: 7) was synthesized. The ability of the peptide to bind heparin was confirmed on heparin-sepharose, where material eluted with 0.5, 1 and 2M NaCl was identified by MALDI-TOF MS (data not shown).

[3] = target: T1, Syndecan 3 (Homo sapiens, UniProt O75056); experiment: Affinity purification of K105 membrane proteoglycans on chondroadherin-agarose and immunoprecipitation with pan-syndecan antibody; type: binding; settings: eluted with 0.5 M NaCl, after heparitinase
T1 construct: endogenous in cells; host or cells: human chondrosarcoma cells K105 (membrane fraction, surface-biotinylated)
Procedure: Recombinant chondroadherin (2.5 mg expressed in EBNA-cells per ml agarose) was coupled to Mini-Leak agarose (Kem En Tec, A/S, Denmark) according to the manufacturer's instructions. The control agarose was treated in the same manner but with no protein added.
Human chondrosarcoma cells (k105) suspended in PBS were incubated with EZ-link sulfo NHS-LC biotin (Pierce Chemical Co) at a final concentration of 1 mg/ml for 1 hour at room temperature. The cells were incubated for 10 minutes in 0.1 M glycine in PBS to block free biotin, washed three times in PBS and then resuspended and homogenized in 10 mM KCl, 20 mM Tris/HCl, pH 7.4, 1 mM EDTA (1 ml/10^6 cells). Nuclei were removed by centrifugation at 1,500 g for 5 minutes, 0.15 M NaCl was added to the supernatant and the membrane fraction was collected by centrifugation at 50,000 g for 30 minutes. The pellet was suspended in 2 ml 8 M UREA, 2% […] in TBS pH 7.4 supplemented with COMPLET® protease inhibitor (Roche). The lysate was cleared by centrifugation at 14,000 g for 20 min. […]
Cell surface proteins on human chondrosarcoma cells (K105) were biotin labeled and affinity purified on chondroadherin-agarose in urea. Bound material was eluted with 0.5 M NaCl, separated on SDS-PAGE (4-12%) and detected by Western blot before or after heparitinase and chondroitinase ABC treatment. […]

T1 sequence (O75056 whole entry): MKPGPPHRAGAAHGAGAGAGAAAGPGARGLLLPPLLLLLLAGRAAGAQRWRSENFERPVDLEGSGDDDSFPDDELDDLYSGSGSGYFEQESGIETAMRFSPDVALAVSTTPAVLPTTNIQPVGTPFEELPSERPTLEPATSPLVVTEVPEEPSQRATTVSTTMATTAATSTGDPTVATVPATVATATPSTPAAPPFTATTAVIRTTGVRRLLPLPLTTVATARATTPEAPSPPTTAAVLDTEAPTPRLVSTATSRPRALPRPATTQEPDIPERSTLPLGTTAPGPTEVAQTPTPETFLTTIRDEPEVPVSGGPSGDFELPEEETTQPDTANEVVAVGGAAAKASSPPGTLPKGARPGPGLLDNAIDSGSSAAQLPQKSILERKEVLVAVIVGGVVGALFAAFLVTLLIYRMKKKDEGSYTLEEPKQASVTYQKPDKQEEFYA

binding to heparin-sepharose [2]: bind to the heparin-sepharose
binding to heparin-sepharose ([2]; listed as Recombinant chondroadherin): bind heparin
K105 membrane component bound to chondroadherin [3]: Syndecan 3
B1: Chondroadherin (protein)
chain: ACPQNCHCHSDLQHVICDKVGLQKIPKVSEKTKLLNLQRNNFPVLAANSFRAMPNLVSLHLQHCQIREVAAGAFRGLKQLIYLYLSHNDIRVLRAGAFDDLTELTYLYLDHNKVTELPRGLLSPLVNLFILQLNNNKIRELRAGRFQGAKDLRWLYLSENALSSLQPGALDDVENLAKFHVDRNQLSSYPSAALSKLRVVEELKLSHNPLKSIPDNAFQSFGRYLETLWLDNTNLEKFSDGAFLGVTTLKHVHLENNRLNQLPSNFPFDSLETLALTNNPWKCTCQLRGLRRWLEAKASRPDATCASPAKFKGQHIRDTDAFRSCKFPTKRSKKAGRH
modifications: homo sapiens
notes: leucine-rich cartilage matrix protein, 338 amino acids; human recombinant, expressed in EBNA cells or E. coli
adhesion of K9 cells to coated substrate (number of cells) [1]: virtually identical to that of the bacterially expressed
